Results taken from US20200048358A1 (ALLIGATOR BIOSCIENCE, published 2020).
Numbering of substitutions follows the chain as printed.

T1: chimeric OX40 construct 1544: Human OX40 with mouse domains 1A, 1B and 2A (aa 30-81) (human; mouse, UniProt P47741 26-77)
T1 construct: domain: 1A, 1B and 2A; On transiently transfected FreeStyle 293-F cells
T1 sequence: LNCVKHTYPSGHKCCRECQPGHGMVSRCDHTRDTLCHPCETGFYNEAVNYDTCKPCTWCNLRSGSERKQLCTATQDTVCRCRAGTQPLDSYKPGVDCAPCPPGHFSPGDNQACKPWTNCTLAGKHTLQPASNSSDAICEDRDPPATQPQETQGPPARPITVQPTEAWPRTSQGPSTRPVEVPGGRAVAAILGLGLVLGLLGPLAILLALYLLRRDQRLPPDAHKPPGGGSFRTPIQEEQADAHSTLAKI

T2: construct 84: Construct containing the full length OX40 sequence (human, UniProt P43489 29-277)
T2 construct: On transiently transfected FreeStyle 293-F cells; also called human OX40 (full length, on 293-F cells)
T2 sequence: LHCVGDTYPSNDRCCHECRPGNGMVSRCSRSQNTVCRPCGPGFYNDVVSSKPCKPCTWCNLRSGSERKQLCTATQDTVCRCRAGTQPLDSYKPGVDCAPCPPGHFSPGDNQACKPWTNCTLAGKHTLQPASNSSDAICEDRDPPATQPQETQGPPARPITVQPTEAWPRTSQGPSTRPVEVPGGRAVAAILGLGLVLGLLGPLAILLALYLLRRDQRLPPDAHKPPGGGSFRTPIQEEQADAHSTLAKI

T3: chimeric OX40 construct 1546: Human OX40 with mouse domains 2A, 2B and module 3 (aa 66-126) (human; mouse, UniProt P47741 62-124)
T3 construct: domain: 2A, 2B and module 3; On 293-F cells; limits derived as for 1544
T3 sequence: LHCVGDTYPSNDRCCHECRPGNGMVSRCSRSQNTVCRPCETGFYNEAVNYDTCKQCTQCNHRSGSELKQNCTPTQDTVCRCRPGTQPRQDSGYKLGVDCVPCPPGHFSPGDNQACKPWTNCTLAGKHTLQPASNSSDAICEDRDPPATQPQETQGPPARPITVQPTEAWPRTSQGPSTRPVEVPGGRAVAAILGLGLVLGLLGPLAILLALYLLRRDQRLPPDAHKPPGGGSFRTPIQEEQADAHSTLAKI

T4: chimeric OX40 construct 1548: Human OX40 with mouse module 3 and domains 4A and 4B (aa 108-167) (human; mouse, UniProt P47741 104-165)
T4 construct: domain: module 3 and domains 4A and 4B; On 293-F cells; limits derived as for 1544
T4 sequence: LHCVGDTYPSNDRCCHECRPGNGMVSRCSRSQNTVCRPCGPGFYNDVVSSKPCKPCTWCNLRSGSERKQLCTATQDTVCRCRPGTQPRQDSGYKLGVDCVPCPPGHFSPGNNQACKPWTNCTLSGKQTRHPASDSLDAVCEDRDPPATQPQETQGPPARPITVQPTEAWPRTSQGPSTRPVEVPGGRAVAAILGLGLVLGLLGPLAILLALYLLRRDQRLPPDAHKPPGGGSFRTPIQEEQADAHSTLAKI

T5: chimeric OX40 construct 1547: Human OX40 with mouse domain 2B, module 3 and domain 4A (aa 83-141) (human; mouse, UniProt P47741 79-139)
T5 construct: domain: 2B, module 3 and domain 4A; On 293-F cells; limits derived as for 1544
T5 sequence: T3 sequence with E40G, T41P, E46D, A47V, N49S, Y50S, D51K, T52P, D111N

T6: chimeric OX40 construct 1545: Human OX40 with mouse domains 1B, 2A and 2B (aa 43-107) (human; mouse, UniProt P47741 39-103)
T6 construct: domain: 1B, 2A and 2B; On 293-F cells; limits derived as for 1544
T6 sequence: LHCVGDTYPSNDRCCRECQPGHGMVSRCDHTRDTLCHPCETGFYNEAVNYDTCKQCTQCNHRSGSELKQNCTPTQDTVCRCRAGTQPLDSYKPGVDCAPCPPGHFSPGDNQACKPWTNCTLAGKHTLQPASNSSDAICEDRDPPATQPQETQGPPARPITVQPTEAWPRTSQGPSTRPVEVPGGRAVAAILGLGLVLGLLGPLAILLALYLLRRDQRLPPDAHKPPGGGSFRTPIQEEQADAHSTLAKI

B1: CD86 mutant 910 (ligand)
chain: LKIQAYFNETADLPCQFANSQNQSLSELVVFWQDQENLVLNEVYLGKEKFDSVDSKYMGRTSFDSDSWTLRLHNLQIKDKGIYQCIIHHKKPTGMVKIHEMNSELSVLA
notes: Variant of the soluble extracellular domain of human CD86
B2: CD86 mutant 906 (ligand)
chain: B1 chain with F7I, Q23L, K49R, I82F, M95L
notes: as for B1
B3: CD86 mutant 904 (ligand)
chain: B1 chain with V29I, K49R, S52A, T93S, E100Q, N102D
notes: as for B1
B4: CD86 mutant 901 (ligand)
chain: B1 chain with Q23L, S24T, D54H, I86V, V96I, A109T
notes: as for B1
B5: CD86 mutant 915 (ligand)
chain: B1 chain with V39I, I82F, T93S, M95L, V96I, E100Q, N102D
notes: as for B1
B6: CD86 mutant 907 (ligand)
chain: B1 chain with D54H, I82L, V96I
notes: as for B1
B7: CD86 mutant 908 (ligand)
chain: B1 chain with D54H
notes: as for B1
B8: CD86 mutant 938 (ligand)
chain: B1 chain with V39I, D54H, E100Q
notes: as for B1
B9: CD86 mutant 900 (ligand)
chain: B1 chain with I86V, T93S, M95L
notes: as for B1
B10: human wild-type CD86 (monomeric soluble extracellular domain), sample 'Wild type' (ligand)
chain: APLKIQAYFNETADLPCQFANSQNQSLSELVVFWQDQENLVLNEVYLGKEKFDSVHSKYMGRTSFDSDSWTLRLHNLQIKDKGLYQCIIHHKKPTGMIRIHQMNSELSVLA
notes: also called wild type protein
B11: anti-OX40 antibody 1524/1525 (antibody, V domains shown)
VH: EVQLLESGGGLVQPGGSLRLSCAASGFTFGSYYMGWVRQAPGKGLEWVSSIGSYYGYTYYADSVKGRFTISRDNSKNTLYLQMNSLRAEDTAVYYCARHDYGALDYWGQGTLVTVSS
VL: DIQMTQSPSSLSASVGDRVTITCRASQSISSYLNWYQQKPGKAPKLLIYAASSLQSGVPSRFSGSGSGTDFTLTISSLQPEDFATYYCQQYGPSGLFTFGQGTKLEIK
notes: Tested as IgG
B12: anti-OX40 antibody 1164/1135 (antibody, V domains shown)
VH: EVQLLESGGGLVQPGGSLRLSCAASGFTFYGSSMYWVRQAPGKGLEWVSGIYSSGGYTSYADSVKGRFTISRDNSKNTLYLQMNSLRAEDTAVYYCARGVPHGYFDYWGQGTLVTVSS
VL: not shown
notes: Tested as IgG
B13: anti-OX40 antibody 1490/1135 (antibody, V domains shown)
VH: EVQLLESGGGLVQPGGSLRLSCAASGFTFSSYAMSWVRQAPGKGLEWVSGISYYGGYTYYADSVKGRFTISRDNSKNTLYLQMNSLRAEDTAVYYCARYYPHHYIDYWGQGTLVTVSS
VL: not shown
notes: Tested as IgG
B14: anti-OX40 antibody 1166/1167 (antibody, V domains shown)
VH: EVQLLESGGGLVQPGGSLRLSCAASGFTFGGYYMSWVRQAPGKGLEWVSAISGSGGSTYYADSVKGRFTISRDNSKNTLYLQMNSLRAEDTAVYYCARYDYASMDYWGQGTLVTVSS
VL: B11 VL with G92Y, P93W, S94Y, F97S
notes: also called monospecific OX40 antibody
B15: anti-OX40 antibody 1170/1171 (antibody, V domains shown)
VH: B14 VH with A50Y, S52P, A102Y, S103W
VL: B11 VL with Y91G, G92H, P93G, G95Y, L96P, F97H
notes: Tested as IgG
B16: anti-OX40 antibody 1514/1515 (antibody, V domains shown)
VH: EVQLLESGGGLVQPGGSLRLSCAASGFTFGYYYMSWVRQAPGKGLEWVSGISSYGSYTYYADSVKGRFTISRDNSKNTLYLQMNSLRAEDTAVYYCARSGYSNWANSFDYWGQGTLVTVSS
VL: DIQMTQSPSSLSASVGDRVTITCRASQSISSYLNWYQQKPGKAPKLLIYAASSLQSGVPSRFSGSGSGTDFTLTISSLQPEDFATYYCQQGDYTLFTFGQGTKLEIK
notes: Tested as IgG

Target: T7, CTLA4-Fc (Fitzgerald, #30R-CD152) (human, UniProt P16410 38-152, biotinylated where used as soluble reagent in the inhibition ELISAs)
T7 construct: Bought reagent; also called human CTLA-4 (Fitzgerald); biotinylated-CTLA4
T7 sequence (P16410 38-152 limits assumed): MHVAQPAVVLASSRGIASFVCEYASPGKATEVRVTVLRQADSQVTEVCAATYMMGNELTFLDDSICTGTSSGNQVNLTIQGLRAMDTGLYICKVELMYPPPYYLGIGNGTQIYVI
Experiment: binding ELISA; ratio [EC50 for CD28-Fc]/[EC50 for CTLA4-Fc]
Procedure: 96-well flat bottom high binding plates (Greiner, #655074) were coated with either CTLA4-Fc (Fitzgerald, #30R-CD152) or CD28-Fc (R&D systems, 342-CD) by incubating overnight at 4° C. […] The plates were washed again and sample or controls (serially diluted 1/5 from 200-0.001 μg/ml) were added to the wells. The samples were incubated for 1 h at room temperature and then washed. Detection antibody, goat-anti-human IgG Fcγ-HRP (Jackson, #109-035-098) was added and the plates were subsequently developed using SuperSignal Pico Chemiluminescent substrate (Thermo Scientific, #37069) and detected with an Envision reader (Perkin Elmer). EC50 values were calculated for both CTLA4 and CD28. The binding ratio (EC50 binding ratio=[EC50 for CD28]÷[EC50 for CTLA-4]) was calculated for each polypeptide and is shown in Table 1.1.

In order of falling EC50 binding ratio:
1. B6  30.5
2. B4  17.2
3. B2  16.2
4. B3  12.2
5. B5  9.9
6. B1  7.7
7. B7  6.2
8. B9  3.5
9. B10  3.4
10. B8  2

Target: T7, CTLA4-Fc (Fitzgerald, #30R-CD152)
Experiment: SPR (Biacore); ratio [Kd for CD28]/[Kd for CTLA-4]
Procedure: Either CTLA4-Fc (Fitzgerald, #30R-CD152) or CD28-Fc (R&D Systems, 342-CD) was immobilized to the Biacore™ sensor chip, CM5, using conventional amine coupling. […] The association was followed for 3 minutes and the dissociation for 10 minutes. Regeneration was performed twice using 5 mM NaOH for 30 seconds. The kinetic parameters and the affinity constants were calculated using BIAevaluation 4.1 software (Table 1.3).

In order of rising Kd binding ratio:
1. B2  0.8
2. B10  1.6
3. B5  1.9
4. B4  2.7
5. B7  4.7
6. B1  5.1
7. B8  5.5
8. B6  5.6
9. B3  6.8

Target: T1, chimeric OX40 construct 1544: Human …
Experiment: flow cytometry, transfected 293-F cells
Procedure: (§1) The mouse/human chimeras were transiently transfected into FreeStyle 293-F cells (Invitrogen), incubated 48 hours in FreeStyle 293 expression medium (Invitrogen) 37 C, 8% CO₂, 135 rpm. The transfected cells were incubated with human OX40 antibodies, human OX40L (hOX40L, RnD Systems), mouse OX40L (mOX40L, RnD Systems) and controls for 30 min 4° C. and then detected with a-huIgG-PE (Jackson lmmunoresearch) 30 min 4° C. Cells were analyzed with FACS Verse (BD Biosciences). Binding to the different chimeric constructs were calculated as relative (mean fluorescence intensity) MFI compared to the binding of the isotype control.

For B11, the “relative MFI compared to isotype control” value was 1.5.

Target: T2, construct 84: Construct containing the …
Experiment: flow cytometry, transfected 293-F cells
Procedure: as §1

In order of falling “relative MFI compared to isotype control” value:
1. B11  31.4
2. B12  27.5

Target: T3, chimeric OX40 construct 1546: Human …
Experiment: flow cytometry, transfected 293-F cells
Procedure: as §1

In order of rising “relative MFI compared to isotype control” value:
1. B12  0.9
2. B11  0.9

Target: T4, chimeric OX40 construct 1548: Human …
Experiment: flow cytometry, transfected 293-F cells
Procedure: as §1

In order of rising “relative MFI compared to isotype control” value:
1. B12  1
2. B13  1.1
3. B11  15.4
4. B14  15.8
5. B16  17.2
6. B15  20.3

Target: T5, chimeric OX40 construct 1547: Human …
Experiment: flow cytometry, transfected 293-F cells
Procedure: as §1

In order of falling “relative MFI compared to isotype control” value:
1. B12  1
2. B11  1

Target: T6, chimeric OX40 construct 1545: Human …
Experiment: flow cytometry, transfected 293-F cells
Procedure: as §1

In order of rising “relative MFI compared to isotype control” value:
1. B11  0.9
2. B12  37.3
